“And” between values parts separate entries of the source, which are not always exact repeats. Equal entries are not always repeated.
How the values were obtained:
[1] = target: Dimeric kinesin K401-BIO-H6 (Drosophila | E. coli) (UniProt P17210); assay: mass photometry
Streptavidin = Streptavidin (UniProt P22629); assay: mass photometry

- stoichiometry N [1]: 2
- stoichiometry N (kinesin dimers per streptavidin tetramer) (Streptavidin): 1 and 2 and 3
Substance: Dimeric kinesin K401-BIO-H6 (from UniProt P17210 1-401)
